According to publication PMC8461249 (2021):

How the values were obtained:
Assay in all cases: SPR
[1] = target: T1, TβRII-Fc (TβRII extracellular domain fused to human IgG1 Fc) (human, UniProt P37173-1 23-166)
[2] = target: T2, TβRII-SE/Fc (TβRII-Soluble Endogenous fused to the human IgG1 Fc domain) (human)
T2 chain: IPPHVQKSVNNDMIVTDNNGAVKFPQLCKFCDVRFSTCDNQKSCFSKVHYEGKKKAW

[3] = target: T1, TβRII-Fc (TβRII extracellular domain …); remark: listed apart in the source
[4] = target: T2, TβRII-SE/Fc (TβRII-Soluble Endogenous …)
1D11 = target: 1D11

T1 sequence (P37173 23-166): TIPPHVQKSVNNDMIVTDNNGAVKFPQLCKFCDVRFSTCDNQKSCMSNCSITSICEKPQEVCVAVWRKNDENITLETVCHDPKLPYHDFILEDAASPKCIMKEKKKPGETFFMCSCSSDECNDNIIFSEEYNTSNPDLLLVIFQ

| Binder | Kd [1] [nM] | Kd [2] [nM] | koff [3] [s⁻¹] | koff [4] [s⁻¹] | Kd (1D11) [nM] | koff (1D11) [s⁻¹] |
| --- | --- | --- | --- | --- | --- | --- |
| TGF-β3 (ligand) ALDTNYCFRNLEENCCVRPLYIDFRQDLGWKWVHEPKGYYANFCSGPCPYLRSADTTHSTVLGLYNTLNPEASASPCCVPQDLEPLTILYYVGRTPKVEQLSNMVVKSCKCS | 0.137 | 0.093 | 0.00116 | 0.00018 | 0.068 | 0.00012 |
| TGF-β2 (ligand) ALDAAYCFRNVQDNCCLRPLYIDFKRDLGWKWIHEPKGYNANFCAGACPYLWSSDTQHSRVLSLYNTINPEASASPCCVSQDLEPLTILYYIGKTPKIEQLSNMIVKSCKCS | 9.5 | 0.674 | 0.0197 | 0.00067 | 0.33 | 0.0015 |
